From publication PMC8263732, “M1BP cooperates with CP190 to activate transcription at TAD borders and promote chromatin insulator activity” (Nature Communications, 2021) come the findings set out here.

Holding throughout (experiment): co-IP; 500 ug nuclear extract of 0-24 h Drosophila embryos incubated overnight at 4 C with antiserum (anti-Su(Hw), anti-CP190, anti-Mod(mdg4)67.2 or anti-M1BP; normal serum as control) cross-linked to Protein A or G Sepharose; washed twice with HBSMT and once with HBSM; western blotting; efficiency as percent of total input protein
Holding throughout (conditions): partners not purified

Test [1] deals with T1, Motif 1 Binding Protein (M1BP) (Drosophila (endogenous in 0-24 h Oregon …, UniProt Q9VHM3 1-418)).
T1 construct: endogenous protein in embryonic nuclear extract; source: endogenous, nuclear extract of 0-24 h Drosophila embryos
T1 sequence (looked up): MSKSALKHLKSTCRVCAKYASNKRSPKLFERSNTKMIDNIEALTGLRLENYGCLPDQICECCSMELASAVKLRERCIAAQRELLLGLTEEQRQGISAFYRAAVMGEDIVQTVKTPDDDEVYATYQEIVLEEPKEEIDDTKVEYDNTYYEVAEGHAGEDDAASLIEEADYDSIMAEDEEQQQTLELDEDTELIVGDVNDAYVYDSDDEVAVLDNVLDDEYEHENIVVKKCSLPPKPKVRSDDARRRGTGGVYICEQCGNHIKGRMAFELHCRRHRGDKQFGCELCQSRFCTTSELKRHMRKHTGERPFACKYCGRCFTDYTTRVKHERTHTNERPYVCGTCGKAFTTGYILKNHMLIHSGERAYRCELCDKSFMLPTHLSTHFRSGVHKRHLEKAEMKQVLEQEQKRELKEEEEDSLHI

Test [2] has as its target T2, Modifier of mdg4 [Mod(mdg4)] 67.2 kDa isoform [Mod(mdg4)67.2] (Drosophila (endogenous in 0-24 h Oregon …, UniProt Q86B87 1-610)).
T2 construct: Modifier of mdg4, the 67.2 kDa isoform, Drosophila; The gene has many isoforms; the 67.2 kDa isoform is meant; to be checked; source: endogenous, nuclear extract of 0-24 h Drosophila embryos
T2 sequence (looked up): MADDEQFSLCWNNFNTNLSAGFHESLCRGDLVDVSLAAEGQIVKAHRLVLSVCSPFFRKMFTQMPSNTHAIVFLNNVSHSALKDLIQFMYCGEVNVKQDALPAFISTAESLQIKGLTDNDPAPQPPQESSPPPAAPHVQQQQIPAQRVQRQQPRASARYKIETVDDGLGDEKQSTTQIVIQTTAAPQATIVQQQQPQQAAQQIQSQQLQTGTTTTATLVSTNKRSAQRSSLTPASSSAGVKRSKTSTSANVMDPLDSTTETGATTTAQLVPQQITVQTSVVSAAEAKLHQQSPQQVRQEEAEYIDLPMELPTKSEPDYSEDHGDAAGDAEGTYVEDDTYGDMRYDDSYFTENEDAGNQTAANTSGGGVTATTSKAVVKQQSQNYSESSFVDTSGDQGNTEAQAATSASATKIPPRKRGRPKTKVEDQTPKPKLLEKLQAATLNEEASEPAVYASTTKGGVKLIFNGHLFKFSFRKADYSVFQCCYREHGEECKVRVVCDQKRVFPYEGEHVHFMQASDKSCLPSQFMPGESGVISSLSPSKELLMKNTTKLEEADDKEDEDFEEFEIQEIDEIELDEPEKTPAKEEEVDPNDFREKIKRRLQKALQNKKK

In test [3] the target is T3, Centrosomal protein 190 (CP190) (Drosophila (endogenous in 0-24 h Oregon …, UniProt Q24478 1-1096)).
T3 construct: Centrosomal protein 190 (CP190), universal insulator protein of Drosophila; endogenous protein in embryonic nuclear extract; source: endogenous, nuclear extract of 0-24 h Drosophila embryos
T3 sequence (looked up): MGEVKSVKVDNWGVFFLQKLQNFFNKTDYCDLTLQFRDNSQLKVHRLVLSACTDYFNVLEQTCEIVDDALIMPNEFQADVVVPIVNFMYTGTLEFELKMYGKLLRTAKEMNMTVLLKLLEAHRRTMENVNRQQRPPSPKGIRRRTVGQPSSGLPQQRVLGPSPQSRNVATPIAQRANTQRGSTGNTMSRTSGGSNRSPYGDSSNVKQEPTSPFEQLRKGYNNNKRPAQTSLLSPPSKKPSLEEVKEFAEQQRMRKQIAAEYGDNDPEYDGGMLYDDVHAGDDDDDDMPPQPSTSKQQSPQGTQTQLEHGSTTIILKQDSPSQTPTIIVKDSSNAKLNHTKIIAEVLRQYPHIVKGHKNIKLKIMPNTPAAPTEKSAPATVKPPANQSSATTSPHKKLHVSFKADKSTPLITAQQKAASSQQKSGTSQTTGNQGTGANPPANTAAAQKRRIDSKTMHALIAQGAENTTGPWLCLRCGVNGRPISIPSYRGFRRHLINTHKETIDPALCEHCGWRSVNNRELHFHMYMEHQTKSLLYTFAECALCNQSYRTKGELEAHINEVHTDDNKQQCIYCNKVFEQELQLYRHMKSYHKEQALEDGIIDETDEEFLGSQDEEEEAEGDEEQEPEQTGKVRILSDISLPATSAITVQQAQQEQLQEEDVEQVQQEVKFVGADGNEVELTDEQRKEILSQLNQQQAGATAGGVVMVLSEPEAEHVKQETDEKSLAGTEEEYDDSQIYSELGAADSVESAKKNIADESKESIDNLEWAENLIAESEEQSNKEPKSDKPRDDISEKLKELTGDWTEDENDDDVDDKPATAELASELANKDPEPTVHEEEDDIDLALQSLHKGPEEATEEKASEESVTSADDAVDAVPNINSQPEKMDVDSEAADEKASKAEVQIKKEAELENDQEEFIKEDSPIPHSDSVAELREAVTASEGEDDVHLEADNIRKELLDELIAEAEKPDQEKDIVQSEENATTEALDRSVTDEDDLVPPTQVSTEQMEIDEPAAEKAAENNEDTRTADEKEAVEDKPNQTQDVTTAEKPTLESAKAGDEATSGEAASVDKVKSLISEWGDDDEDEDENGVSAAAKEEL

B1: Suppressor of Hairy wing [Su(Hw)] (natural protein, UniProt P08970 1-941, looked up)
chain: MSASKEGKEKKGKLLGVENISPPKDKRPATRMKLLNDVGAGEDSEASTTTTTSRTPSNKQEKRGSVAGSRIKILNEEILGTPKTEKRGATKSTAPAASTVKILNEKKTPSATVTAVETTKIKTSPSKRKKMEHYVLQAVKSENTKADTTVTVVTEEDDTIDFILADDEEVVPGRIENNNGQEIVVTEDDEDLGEDGDEDGEDSSGKGNSSQTKIKEIVEHVCGKCYKTFRRVQSLKKHLEFCRYDSGYHLRKADMLKNLEKIEKDAVVMEKKDICFCCSESYDTFHLGHINCPDCPKSFKTQTSYERHIFITHSEFSDFPCSICNANLRSEALLALHEEQHKSRGKPYACKICGKDFTRSYHLKRHQKYSSCSSNETDTMSCKVCDRVFYRLDNLRSHLKQHLGTQVVKKPEYMCHTCKNCFYSLSTLNIHIRTHTGEKPFDCDLCDKKFSALVALKKHRRYHTGEKPYSCTVCNQAFAVKEVLNRHMKRHTGERPHKCDECGKSFIQATQLRTHSKTHIRPFPCEQCDEKFKTEKQLERHVKTHSRTKRPVFSCAECKRNFRTPALLKEHMDEGKHSPKQQRSSMRSAVKIMERTDCAICDKNFDSSDTLRRHIRTVHECDPDDIFGVEPHPSKRAKKDIESEEVVPVALNTSAGSLISSQTDGNGVVVREFLVDEGDGAAQTITLENETYTILPLDGAIEGEQLTDEAGVKPEAKKEEAQVSPVVKKEQRKSLAASLAAAIADNLEESCSEDDFSGEILTEEDIKLKENVGKLIDMLVDPPILKKYGWPNAPEETVLCKVIENCGHDLTKGGENYAELDYGSRMREYCKLLFTVVIHNDSIKSLLNNFPIDDVIEYVLGDEDQDEGGLDKDNESHSGDEEAVSVTGETKTNEIREKPEKKEVSAKSEKKEIVGKAVDKDNSEEVVRENKKKPVGEQEKA
notes: endogenous protein in embryonic nuclear extract; source: endogenous, nuclear extract of 0-24 h Drosophila embryos
Regarding B1, the “percent of total protein immunoprecipitated with anti-M1BP” value in test [1] came to 2.6%. Further, in test [2], the “percent of total protein immunoprecipitated with anti-Mod(mdg4)67.2” value came out at 8.5%. In addition, the “percent of total protein immunoprecipitated with anti-CP190” value in test [3] was determined as 7%.
